Measurements as given in patent US20260152555A1 (HUAHUI HEALTH, published 2026).

Assays:
[1] = biological target: T1, human CD112R, full length, expressed on cells (YTS-hCD112R; Jurkat-NFAT-luc-hCD112R) (human, UniProt Q6DKI7 42-326); experiment: cell-based or functional assay
T1 sequence (looked up): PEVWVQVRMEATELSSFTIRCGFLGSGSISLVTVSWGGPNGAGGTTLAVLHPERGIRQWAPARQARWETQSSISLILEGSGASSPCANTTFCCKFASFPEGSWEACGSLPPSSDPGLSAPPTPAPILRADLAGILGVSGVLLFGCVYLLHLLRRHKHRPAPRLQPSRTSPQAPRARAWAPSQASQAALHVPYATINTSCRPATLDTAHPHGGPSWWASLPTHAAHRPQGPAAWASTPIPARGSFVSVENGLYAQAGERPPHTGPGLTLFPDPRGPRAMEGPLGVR

hCD112R-ECD-His6-Avi = biological target: T2, hCD112R-ECD-His6-Avi (human, UniProt Q6DKI7 42-172, biotinylated (Avi tag) in the ELISA assays); experiment: ELISA-based competition, biotinylated hCD112R-ECD-His6-Avi on streptavidin, competitor hCD112-ECD-mFc at 0.1 ug/ml
T2 construct: range 42-172; Expressed in HEK 293F cells; Analyte in SPR, and captured on streptavidin in ELISA; also called biotinylated hCD112R-ECD-His6-Avi; not shown: C-terminal His6-Avi tag
T2 sequence (looked up): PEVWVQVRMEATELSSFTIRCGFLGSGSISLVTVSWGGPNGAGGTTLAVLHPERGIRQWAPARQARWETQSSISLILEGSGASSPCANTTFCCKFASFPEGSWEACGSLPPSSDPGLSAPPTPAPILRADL
Procedure: Biotinylated hCD112R-ECD-His₆-Avi protein antigen was captured with streptavidin (Sigma) coated 96-well plates (Nunc, MaxiSorp™). H733 serially diluted in 2% milk/PBS containing 0.1 μg/ml of the hCD112-ECD-mFc protein were added to the ELISA plates to test for competitive binding between hCD112R and hCD112. The signal was measured via ligand detection using HRP-anti-mouse IgG secondary Ab (Thermo Fisher Scientific).

H92A = biological target: T3, H92A (human, UniProt Q6DKI7); experiment: SPR (Biacore T200), multi-cycle; H733-hIgG4 captured on anti-hFc Ab, hCD112R-ECD-mFc variant injected (3.125-100 nM); 1:1 Langmuir [Cont') B]
T3 construct: extracellular domain, amino acids 42-172; alanine-scanning variant; also called hCD112R-ECD-mFc H92A variant
T3 sequence (Fc fusion chain, looked up): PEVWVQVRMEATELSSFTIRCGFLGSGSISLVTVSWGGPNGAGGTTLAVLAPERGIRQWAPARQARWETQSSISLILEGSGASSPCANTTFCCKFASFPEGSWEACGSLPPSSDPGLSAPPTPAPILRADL
Procedure: (§1) Kinetic analyses of the bindings of WT or mutated hCD112R-ECD-mFc proteins to H733 and hCD112-ECD were performed on a Biacore T200 instrument (Biacore, GE Healthcare). For the single-cycle SPR analysis, anti-mFc Ab (Thermo Fisher) was covalently attached to surfaces of a CM5 sensor chip using an amine coupling kit (GE Healthcare). WT or mutated hCD112R-ECD mFc fusion proteins were captured on the chip and H733-hIgG4 or hCD112-ECD-hFc were then injected. For the multi-cycle SPR analysis, anti-hFc Ab (Thermo Fisher) was covalently attached to surfaces of a CM5 sensor chip using an amine coupling kit (GE Healthcare). H733-hIgG4 or hCD112-ECD-hFc protein was captured on the chip and 2-fold serially diluted WT or mutated hCD112R-ECD-mFc proteins (3.125-100 nM) were then injected. Binding kinetics were evaluated using a 1:1 Langmuir binding model. The association rates (ka), dissociation rates (kd), and affinity constants (KD) were calculated using Biacore T200 evaluation software.

K135A = biological target: T4, K135A (human, UniProt Q6DKI7); experiment: as above
T4 construct: extracellular domain, amino acids 42-172; alanine-scanning variant; also called hCD112R-ECD-mFc K135A variant
T4 sequence (Fc fusion chain, looked up): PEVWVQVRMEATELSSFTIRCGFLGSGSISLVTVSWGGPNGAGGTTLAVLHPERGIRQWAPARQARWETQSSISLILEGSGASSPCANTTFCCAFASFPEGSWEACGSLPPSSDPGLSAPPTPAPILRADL
Procedure: as §1

F139A = biological target: T5, F139A (human, UniProt Q6DKI7); experiment: as above
T5 construct: extracellular domain, amino acids 42-172; alanine-scanning variant; also called hCD112R-ECD-mFc F139A variant
T5 sequence (Fc fusion chain, looked up): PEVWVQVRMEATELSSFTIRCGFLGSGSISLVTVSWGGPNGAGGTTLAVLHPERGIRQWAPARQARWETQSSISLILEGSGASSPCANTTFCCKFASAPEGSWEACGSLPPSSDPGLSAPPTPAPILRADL
Procedure: as §1

[2] = biological target: T6, hCD112R-ECD-mFc V90A variant (human; mouse, UniProt Q6DKI7 42-172); experiment: as above
T6 construct: range 42-172; also called V90A mutation of hCD112R; not shown: Fc domain of mouse IgG2a
T6 sequence (looked up): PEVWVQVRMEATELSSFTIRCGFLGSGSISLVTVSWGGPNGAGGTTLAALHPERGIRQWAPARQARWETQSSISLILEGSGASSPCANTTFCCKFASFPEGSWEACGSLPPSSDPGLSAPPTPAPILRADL
Procedure: as §1

B1: H733 (humanized Ab composed of 733-VH-humanV2 and 733-VL-human-C91S) (antibody, human IgG4, V domains shown)
VH: QVQLVQSGAEVKKPGASVKVSCKASGYTFTNYLIEWVRQAPGQGLEWMGVINPGHGFTNYAQKFQGRVTMTRDTSTSTVYMELSSLRSEDTAVYYCARGEWDWYFDVWGQGTTVTVSS
VL: DIQLTQSPSFLSASVGDRVTITCKASQNVGTAVAWYQQKPGKAPKLLIYSTSNRYTGVPSRFSGSGSGTEFTLTISSLQPEDFATYYCQQSSSYPFTFGGGTKVEIK
notes: also called H733-hIgG4; H733 mAb (hIgG4 form)
- EC50 of luciferase production, Jurkat-NFAT-luc-hCD112R reporter cells with CHO-OKT3scFv_hCD112 cells [1]: 0.39 µg/mL
- IC50 (hCD112R-ECD-His6-Avi): 0.87 µg/mL
- Kd (H92A): 0.366 nM
- koff (H92A): 0.000373 s⁻¹
- kon (H92A): 1.02e+06 M⁻¹ s⁻¹
- Kd (K135A): 0.847 nM
- koff (K135A): 0.000412 s⁻¹
- kon (K135A): 487000 M⁻¹ s⁻¹
- Kd (F139A): 0.165 nM
- koff (F139A): 0.000232 s⁻¹
- kon (F139A): 1.4e+06 M⁻¹ s⁻¹
- Kd [2]: 2.01 nM
- koff [2]: 0.000475 s⁻¹
- kon [2]: 237000 M⁻¹ s⁻¹
